Biological target: rat cardiac ryanodine receptor (RyR2) (rat (endogenous in rat ventricular myocytes)) (UniProt B0LPN4)
UniProt B0LPN4, sequence (B0LPN4 whole entry): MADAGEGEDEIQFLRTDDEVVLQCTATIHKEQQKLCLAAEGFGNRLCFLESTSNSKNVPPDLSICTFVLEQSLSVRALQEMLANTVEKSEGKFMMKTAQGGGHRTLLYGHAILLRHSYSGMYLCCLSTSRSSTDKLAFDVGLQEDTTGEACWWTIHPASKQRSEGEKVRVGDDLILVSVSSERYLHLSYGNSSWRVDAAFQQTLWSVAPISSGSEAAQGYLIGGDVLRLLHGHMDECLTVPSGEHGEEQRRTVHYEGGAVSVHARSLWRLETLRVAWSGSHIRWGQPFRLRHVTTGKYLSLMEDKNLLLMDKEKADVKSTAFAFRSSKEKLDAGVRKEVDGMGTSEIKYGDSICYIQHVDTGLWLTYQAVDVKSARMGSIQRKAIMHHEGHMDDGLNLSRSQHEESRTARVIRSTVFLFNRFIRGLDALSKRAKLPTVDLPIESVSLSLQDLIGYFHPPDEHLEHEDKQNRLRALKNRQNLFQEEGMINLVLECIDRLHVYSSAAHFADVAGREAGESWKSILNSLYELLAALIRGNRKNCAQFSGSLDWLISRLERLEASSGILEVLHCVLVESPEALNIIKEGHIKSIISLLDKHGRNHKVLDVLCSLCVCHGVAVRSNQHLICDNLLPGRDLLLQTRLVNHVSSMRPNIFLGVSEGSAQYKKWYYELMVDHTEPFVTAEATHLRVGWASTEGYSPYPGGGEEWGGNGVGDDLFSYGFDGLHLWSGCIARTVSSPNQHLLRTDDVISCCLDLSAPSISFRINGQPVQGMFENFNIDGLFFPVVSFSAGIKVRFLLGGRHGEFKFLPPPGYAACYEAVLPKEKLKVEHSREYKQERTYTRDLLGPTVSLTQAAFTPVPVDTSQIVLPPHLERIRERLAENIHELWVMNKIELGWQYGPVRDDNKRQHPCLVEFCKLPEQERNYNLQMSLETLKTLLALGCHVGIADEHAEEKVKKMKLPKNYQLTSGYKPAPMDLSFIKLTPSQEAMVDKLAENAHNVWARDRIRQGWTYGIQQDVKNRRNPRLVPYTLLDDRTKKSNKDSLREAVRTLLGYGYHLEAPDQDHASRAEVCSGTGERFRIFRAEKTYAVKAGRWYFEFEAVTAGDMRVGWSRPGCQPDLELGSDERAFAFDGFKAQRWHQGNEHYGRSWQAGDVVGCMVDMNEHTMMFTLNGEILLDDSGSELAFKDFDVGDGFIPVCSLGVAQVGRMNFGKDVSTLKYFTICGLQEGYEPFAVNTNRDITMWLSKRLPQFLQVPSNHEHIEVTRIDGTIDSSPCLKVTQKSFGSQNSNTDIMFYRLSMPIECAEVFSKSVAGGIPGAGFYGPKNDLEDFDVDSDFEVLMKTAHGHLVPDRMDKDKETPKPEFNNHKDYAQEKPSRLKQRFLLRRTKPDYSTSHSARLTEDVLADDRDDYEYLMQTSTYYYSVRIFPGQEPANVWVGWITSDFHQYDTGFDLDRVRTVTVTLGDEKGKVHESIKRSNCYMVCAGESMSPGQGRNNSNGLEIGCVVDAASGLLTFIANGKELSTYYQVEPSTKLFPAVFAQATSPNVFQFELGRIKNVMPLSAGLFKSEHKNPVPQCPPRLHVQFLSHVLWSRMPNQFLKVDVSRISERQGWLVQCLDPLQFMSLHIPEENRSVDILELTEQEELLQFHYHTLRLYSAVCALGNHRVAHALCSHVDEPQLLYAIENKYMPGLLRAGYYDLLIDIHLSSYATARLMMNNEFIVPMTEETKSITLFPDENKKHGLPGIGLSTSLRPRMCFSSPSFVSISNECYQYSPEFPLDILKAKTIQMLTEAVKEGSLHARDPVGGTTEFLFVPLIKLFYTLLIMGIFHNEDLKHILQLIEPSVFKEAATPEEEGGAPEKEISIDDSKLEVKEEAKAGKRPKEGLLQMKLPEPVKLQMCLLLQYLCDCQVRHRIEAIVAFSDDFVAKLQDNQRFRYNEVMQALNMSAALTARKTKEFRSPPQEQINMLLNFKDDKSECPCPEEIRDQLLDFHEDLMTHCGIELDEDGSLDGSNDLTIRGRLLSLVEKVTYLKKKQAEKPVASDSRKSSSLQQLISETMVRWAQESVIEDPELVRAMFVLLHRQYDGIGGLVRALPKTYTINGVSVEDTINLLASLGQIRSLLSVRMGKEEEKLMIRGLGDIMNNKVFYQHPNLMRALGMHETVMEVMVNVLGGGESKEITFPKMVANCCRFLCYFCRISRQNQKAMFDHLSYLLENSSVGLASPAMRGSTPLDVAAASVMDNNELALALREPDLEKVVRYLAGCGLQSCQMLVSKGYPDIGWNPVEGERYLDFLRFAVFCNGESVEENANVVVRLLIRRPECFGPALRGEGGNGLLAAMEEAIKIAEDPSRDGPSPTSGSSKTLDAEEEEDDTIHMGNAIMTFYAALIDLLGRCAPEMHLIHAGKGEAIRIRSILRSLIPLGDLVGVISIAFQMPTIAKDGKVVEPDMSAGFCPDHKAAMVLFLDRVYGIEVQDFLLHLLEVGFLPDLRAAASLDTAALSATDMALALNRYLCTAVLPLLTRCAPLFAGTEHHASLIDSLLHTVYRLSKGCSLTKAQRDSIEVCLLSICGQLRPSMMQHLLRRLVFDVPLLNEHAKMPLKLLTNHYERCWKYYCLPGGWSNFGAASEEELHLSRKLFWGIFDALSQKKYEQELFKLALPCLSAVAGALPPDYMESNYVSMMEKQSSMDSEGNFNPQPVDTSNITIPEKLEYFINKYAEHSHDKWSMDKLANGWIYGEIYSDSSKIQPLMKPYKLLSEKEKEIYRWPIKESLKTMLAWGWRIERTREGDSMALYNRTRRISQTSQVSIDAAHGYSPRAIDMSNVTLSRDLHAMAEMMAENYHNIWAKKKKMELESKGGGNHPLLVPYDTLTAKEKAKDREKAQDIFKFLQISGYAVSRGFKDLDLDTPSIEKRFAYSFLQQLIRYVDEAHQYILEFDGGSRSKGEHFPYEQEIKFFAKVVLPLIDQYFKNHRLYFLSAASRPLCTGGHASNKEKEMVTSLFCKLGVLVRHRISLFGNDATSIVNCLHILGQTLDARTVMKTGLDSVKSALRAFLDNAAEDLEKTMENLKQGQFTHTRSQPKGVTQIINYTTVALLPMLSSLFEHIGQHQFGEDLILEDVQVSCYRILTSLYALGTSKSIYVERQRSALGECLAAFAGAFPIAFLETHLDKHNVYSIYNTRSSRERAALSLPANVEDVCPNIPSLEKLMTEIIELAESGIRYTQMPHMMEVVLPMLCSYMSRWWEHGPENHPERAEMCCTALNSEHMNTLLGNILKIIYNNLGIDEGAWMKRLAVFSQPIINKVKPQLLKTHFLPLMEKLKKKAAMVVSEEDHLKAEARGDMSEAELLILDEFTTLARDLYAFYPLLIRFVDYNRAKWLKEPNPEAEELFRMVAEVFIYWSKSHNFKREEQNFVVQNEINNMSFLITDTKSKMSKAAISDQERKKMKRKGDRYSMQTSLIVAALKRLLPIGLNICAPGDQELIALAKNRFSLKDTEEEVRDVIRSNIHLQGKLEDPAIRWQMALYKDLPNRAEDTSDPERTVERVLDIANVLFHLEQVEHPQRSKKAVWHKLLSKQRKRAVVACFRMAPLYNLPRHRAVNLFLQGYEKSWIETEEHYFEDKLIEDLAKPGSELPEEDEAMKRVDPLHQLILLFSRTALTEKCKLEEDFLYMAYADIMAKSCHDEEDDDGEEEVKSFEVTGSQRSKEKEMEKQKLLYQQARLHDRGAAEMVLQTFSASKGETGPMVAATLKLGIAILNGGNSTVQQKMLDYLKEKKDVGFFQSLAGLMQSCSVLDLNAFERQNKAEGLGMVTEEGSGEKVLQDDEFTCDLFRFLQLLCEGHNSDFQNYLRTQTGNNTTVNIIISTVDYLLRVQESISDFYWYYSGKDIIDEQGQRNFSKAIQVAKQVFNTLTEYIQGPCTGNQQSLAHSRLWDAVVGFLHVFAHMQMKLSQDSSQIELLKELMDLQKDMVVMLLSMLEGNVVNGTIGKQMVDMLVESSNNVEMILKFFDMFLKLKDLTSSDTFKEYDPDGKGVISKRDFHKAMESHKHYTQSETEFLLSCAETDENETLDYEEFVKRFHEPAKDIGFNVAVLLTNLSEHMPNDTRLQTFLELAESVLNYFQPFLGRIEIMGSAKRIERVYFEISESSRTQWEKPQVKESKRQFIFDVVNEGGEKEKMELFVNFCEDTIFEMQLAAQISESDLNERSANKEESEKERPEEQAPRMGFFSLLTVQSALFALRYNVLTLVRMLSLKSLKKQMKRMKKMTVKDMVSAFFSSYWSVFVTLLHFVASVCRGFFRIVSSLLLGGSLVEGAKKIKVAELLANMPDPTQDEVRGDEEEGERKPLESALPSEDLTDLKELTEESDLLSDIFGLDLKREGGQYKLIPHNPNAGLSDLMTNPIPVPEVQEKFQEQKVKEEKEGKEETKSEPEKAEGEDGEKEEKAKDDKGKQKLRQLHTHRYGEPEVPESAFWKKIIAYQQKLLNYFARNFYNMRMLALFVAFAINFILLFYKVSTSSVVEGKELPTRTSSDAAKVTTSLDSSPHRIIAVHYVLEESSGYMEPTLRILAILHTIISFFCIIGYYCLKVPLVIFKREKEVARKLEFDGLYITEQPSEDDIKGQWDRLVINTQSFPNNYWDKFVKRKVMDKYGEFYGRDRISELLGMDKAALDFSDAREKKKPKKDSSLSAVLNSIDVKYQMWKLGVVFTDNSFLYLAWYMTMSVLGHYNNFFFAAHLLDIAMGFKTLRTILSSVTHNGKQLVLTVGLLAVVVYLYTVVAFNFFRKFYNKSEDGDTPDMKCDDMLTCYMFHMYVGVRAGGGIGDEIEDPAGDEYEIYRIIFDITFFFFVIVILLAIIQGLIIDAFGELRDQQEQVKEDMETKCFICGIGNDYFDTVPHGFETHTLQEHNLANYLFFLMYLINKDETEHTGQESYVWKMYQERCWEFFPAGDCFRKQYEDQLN

FKBP12, sequence (P62942 whole entry): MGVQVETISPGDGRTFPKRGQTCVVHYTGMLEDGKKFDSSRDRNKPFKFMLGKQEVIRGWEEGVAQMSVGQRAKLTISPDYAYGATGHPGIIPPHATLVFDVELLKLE

“FKBP12 (from UniProt P62942 1-108) (natural protein)” was tested, and the percent increase in the frequency of spontaneous Ca^2+ waves in permeabilised rat cardiac myocytes with 3 µM FKBP12 was 50% and the percent increase in the frequency of spontaneous Ca^2+ waves in permeabilised rat cardiac myocytes with 3 µM FKBP12, after pre-incubation with and in the continued presence of 200 nM FKBP12.6 was 16.2%.
